Data: patent US20050249735A1

How the values were obtained:
[1] = biological target: human lymphotoxin (TNFβ) (human) (UniProt P01374); experiment: cell-based or functional assay
[2] = biological target: human tumor necrosis factor-alpha (TNFα) (human) (UniProt P01375); experiment: cell-based or functional assay
Sequence of human tumor necrosis factor-alpha (TNFα) (human) (P01375 77-233): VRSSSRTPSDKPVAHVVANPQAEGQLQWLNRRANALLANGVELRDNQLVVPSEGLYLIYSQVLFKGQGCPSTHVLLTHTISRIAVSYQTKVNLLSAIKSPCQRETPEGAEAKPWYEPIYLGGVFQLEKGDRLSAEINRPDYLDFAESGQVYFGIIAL

Sequence of human lymphotoxin (TNFβ) (human) (P01374 35-205 limits assumed): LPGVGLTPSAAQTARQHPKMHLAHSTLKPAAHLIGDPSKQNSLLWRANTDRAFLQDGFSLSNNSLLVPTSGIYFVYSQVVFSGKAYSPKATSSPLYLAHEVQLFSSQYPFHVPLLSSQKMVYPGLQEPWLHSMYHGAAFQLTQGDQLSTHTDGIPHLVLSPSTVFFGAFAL

Molecule: p55-sf2 (p55 TNF receptor / IgG1 heavy chain single fusion with truncated light chain JCK) (from UniProt P01857 1-330) (Fc fusion)
- amount needed for the same degree of inhibition of TNFβ cytotoxicity, against p75P-sf2 [1]: 3 fold

Molecule: p75-sf2 (complete extracellular domain of p75 fused to the heavy chain) (from UniProt P20333 23-257; P01857 1-330) (Fc fusion)
- amount needed for the same degree of inhibition of TNFβ cytotoxicity, against p75P-sf2 [1]: 3 fold

Molecule: p75P-sf2 (p75 heavy chain fusion lacking the C-terminal 53 amino acids of the p75 extracellular domain) (from UniProt P20333 23-204; P01857 1-330) (Fc fusion)
- concentration to half-inhibit human TNFβ at 2 pM, WEHI 164 cytotoxicity [1]: 31 pM

B1: chimeric mouse/human IgG1 anti-platelet mAb (7E3) (antibody, INN chains, looked up, V domains shown)
VH: EVQLQQSGTVLARPGASVKMSCEASGYTFTNYWMHWVKQRPGQGLEWIGAIYPGNSDTSYIQKFKGKAKLTAVTSTTSVYMELSSLTNEDSAVYYCTLYDGYYVFAYWGQGTLVTVSA
VL: EIVLTQSPVTLSVTPGDSVSLSCRASRDISNNLHWFQQTSHESPRLLIKYASQSMSGIPSRFSGSGSGTDFTLSINSVETEDFGMYFCQQTNSWPYTFGGGTKLEIK
modifications: full IgG1
- IL-6 in supernatant of FS-4 fibroblasts, rhTNF 0.3 ng/ml, 4 µg/ml antibody [2]: 1.6 ng/mL
- IL-6 in supernatant of FS-4 fibroblasts, rhTNF 1.5 ng/ml, 4 µg/ml antibody [2]: 1.96 ng/mL
- IL-6 in supernatant of FS-4 fibroblasts, rhTNF 7.5 ng/ml, 4 µg/ml antibody [2]: 2.16 ng/mL
